Experimental data reported in patent US20070253950A1 (Pfizer, published 2007).

Legend:
[1] = target: T1, human RAGE-strep tag fusion protein (human, UniProt Q15109 23-344); assay: BIACORE capture assay: hRAGE-SA over antibody captured on anti-human Fc; steady state affinity; FC4
T1 construct: monomeric soluble human RAGE; also called hRAGE-SA; soluble human streptavidin-tagged RAGE
Procedure: (§1) The assays were performed by coating anti-human Fc antibodies onto a CM5 BIA chip with 5000 RU (pH 5.0, 7 min.) in flow cells 1-4. Each antibody was captured by flowing at 2.0 μg/ml over the anti-Fc antibodies in flow cells 2-4 (flow cell 1 was used as a reference).

[2] = target: T1, human RAGE-strep tag fusion protein; assay: BIACORE, antibody coated on CM5 chip, hRAGE-SA in flow
Procedure: The assays were performed by coating antibodies onto a CM5 BIA chip with 5000-7000 RU.

[3] = target: T2, murine RAGE-strep tag fusion protein (murine, UniProt Q62151 23-343); assay: BIACORE capture assay: mRAGE-SA (SA-Mu RAGE) over antibody captured on anti-human Fc; 1:1 Langmuir global fit; FC2
T2 construct: also called mRAGE-strep; mRAGE-SA
T2 chain: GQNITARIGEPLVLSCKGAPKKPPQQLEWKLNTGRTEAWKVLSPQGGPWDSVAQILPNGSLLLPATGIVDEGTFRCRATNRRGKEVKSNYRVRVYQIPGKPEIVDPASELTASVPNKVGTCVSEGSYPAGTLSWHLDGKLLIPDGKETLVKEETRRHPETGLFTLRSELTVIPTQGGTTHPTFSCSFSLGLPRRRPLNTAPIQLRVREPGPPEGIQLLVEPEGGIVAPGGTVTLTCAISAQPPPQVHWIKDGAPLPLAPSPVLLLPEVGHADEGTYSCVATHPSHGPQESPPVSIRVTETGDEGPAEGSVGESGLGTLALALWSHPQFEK
Procedure: as §1

[4] = target: T1, human RAGE-strep tag fusion protein; assay: BIACORE, antibody coated on CM5 chip, hRAGE-SA in flow; remark: listed apart in the source
baboon RAGE, on cells = target: T3, baboon RAGE, on cells (baboon, UniProt Q15109 23-404 (human entry)); assay: cell-based ELISA, transfected 293 cells
T3 construct: on transfected 293 cells or endogenous in lung sections; also called 293-baboon RAGE; RAGE in baboon lung
T3 chain: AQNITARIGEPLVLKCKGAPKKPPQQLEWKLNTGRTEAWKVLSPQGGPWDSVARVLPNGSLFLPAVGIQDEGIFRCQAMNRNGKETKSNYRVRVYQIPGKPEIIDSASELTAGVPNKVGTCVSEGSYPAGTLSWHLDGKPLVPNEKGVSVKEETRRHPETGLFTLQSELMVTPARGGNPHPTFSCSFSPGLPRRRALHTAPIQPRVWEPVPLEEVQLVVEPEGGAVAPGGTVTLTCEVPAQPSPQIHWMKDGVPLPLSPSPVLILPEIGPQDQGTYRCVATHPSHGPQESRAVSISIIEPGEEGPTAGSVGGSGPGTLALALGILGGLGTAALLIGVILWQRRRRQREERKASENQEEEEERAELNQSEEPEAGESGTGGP
Procedure: (§2) Human embryonic kidney 293 cells (American Tissue Type Culture, Manassas, Va.) cells were plated at 5×10⁶ cells per 10 cm² tissue culture plate and cultured overnight at 37° C. The next day cells were transfected with RAGE expression plasmids (pAdori1-3 vector encoding mouse, human, baboon, cynomologus monkey or rabbit RAGE) using LF2000 reagent (Invitrogen, Carlsbad Calif.) at a 4:1 ratio of reagent to plasmid DNA using the manufacturers protocol. Cells were harvested 48 hrs post-transfection using trypsin, washed once with phosphate buffered saline (PBS), then suspended in growth media without serum at a concentration of 2×10⁶ cells/ml.
(§3) Primary antibodies at 1 μg/ml were serially diluted at 1:2 or 1:3 in PBS containing 1% bovine serum albumin (BSA) in a 96-well plate. RAGE-transfected 293 cells or control parental 293 cells (50 μl) at 2×10⁶ cells/ml in serum-free growth medium were added to U-bottom 96 well plate for a final concentration of 1×10⁵ cells/well. The cells were centrifuged at 1600 rpm for 2 minutes. The supernatants were gently discarded by hand with a one-time swing and the plate was patted gently to loose the cell pellet. The diluted primary anti-RAGE antibodies or isotype-matching control antibodies (100 μl) in cold PBS containing 10% fetal calf serum (FCS) were added to the cells and incubated on ice for 1 hour. The cells were stained with 100 μl of diluted secondary anti-IgG antibody HRP conjugates (Pierce Biotechnology, Rockford, Ill.) on ice for 1 hour. Following each step of primary antibody and secondary antibody incubations, the cells were washed 3 times with ice-cold PBS. 100 μl of substrate TMB1 component (BIO FX, TMBW-0100-01) was added to the plate and incubated for 5-30 minutes at room temperature. The color development was stopped by adding 100 μl of 0.18M H₂SO₄. The cells were centrifuged and the supernatants are transferred to a fresh plate and read at 450 nm (Soft MAX pro 4.0, Molecular Devices Corporation, Sunnyvale, Calif.).

[5] = target: T4, human RAGE, full length, on cells (human, UniProt Q15109 23-404); assay: cell-based ELISA, transfected 293 cells
T4 construct: on transfected or infected 293 cells, stably transfected CHO cells, or endogenous in human lung sections; also called cell-surface hRAGE; 293-human RAGE
Procedure: as §2, §3

[6] = target: T1, human RAGE-strep tag fusion protein; assay: BIACORE capture assay: hRAGE-SA over antibody captured on anti-human Fc; 1:1 Langmuir global fit; FC3
Procedure: as §1

[7] = target: T1, human RAGE-strep tag fusion protein; assay: BIACORE capture assay: hRAGE-SA over antibody captured on anti-human Fc; steady state affinity; FC3
Procedure: as §1

[8] = target: T2, murine RAGE-strep tag fusion protein; assay: BIACORE capture assay: mRAGE-SA (SA-Mu RAGE) over antibody captured on anti-human Fc; 1:1 Langmuir global fit; FC3
Procedure: as §1

[9] = target: T1, human RAGE-strep tag fusion protein; assay: BIACORE capture assay: hRAGE-SA over antibody captured on anti-human Fc; steady state affinity; average of FC2-FC4
Procedure: as §1

T1 sequence (Q15109 other isoform, or with tags, fused parts or gaps): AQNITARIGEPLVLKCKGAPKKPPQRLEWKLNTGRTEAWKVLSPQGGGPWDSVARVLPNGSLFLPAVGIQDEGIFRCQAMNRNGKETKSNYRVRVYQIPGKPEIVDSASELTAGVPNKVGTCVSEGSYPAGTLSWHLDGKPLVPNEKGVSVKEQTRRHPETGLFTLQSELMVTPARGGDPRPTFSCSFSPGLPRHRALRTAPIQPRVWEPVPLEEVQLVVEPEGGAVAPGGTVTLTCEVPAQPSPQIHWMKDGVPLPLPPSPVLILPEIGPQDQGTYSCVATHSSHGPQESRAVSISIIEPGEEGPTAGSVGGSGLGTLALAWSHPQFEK

- Kd [1]: 11 nM
- Ka [2]: 1.77e+08 M⁻¹
- Kd [2]: 5.66 nM
- koff [2]: 0.0248 s⁻¹
- kon [2]: 4.39e+06 M⁻¹ s⁻¹
- Kd [3]: 1.9 nM
- koff [3]: 0.0042 s⁻¹
- kon [3]: 2.2e+06 M⁻¹ s⁻¹
- Kd [4]: ~5.5 nM
- EC50 (baboon RAGE, on cells): ~1.25 nM
- EC50 [5]: ~0.8 nM
- Kd [6]: 7.33 nM
- koff [6]: 0.0271 s⁻¹
- kon [6]: 3.7e+06 M⁻¹ s⁻¹
- Kd [7]: 11 nM
- Kd [8]: 1.9 nM
- koff [8]: 0.0041 s⁻¹
- kon [8]: 2.1e+06 M⁻¹ s⁻¹
- Kd [9]: 11 nM
B1: chimeric XT-M4 (antibody, V domains shown)
VH: EVQLVESGGGLVQPGRSLKLSCVVSGFTFNNYWMTWIRQTPGKGLEWVASINNSGDNTYYPDSVKDRFTISRDNAKSTLYLQMNSLRSEDTATYYCTRGGDITTGFDYWGQGVMVTVSS
VL: DIQMTQSPSSMSVSLGDTITITCRASQDVGIYVNWFQQKPGKSPRRMIYRATNLADGVPSRFSGSRSGSIYSLTISSLESEDVADYHCLEFDEHPLTFGSGTKVEIK
modifications: N-linked oligosaccharide at Asn52 (CDR2) on part of the heavy chains
notes: rat XT-M4 variable regions fused to human kappa light chain and human IgG1 heavy chain constant regions; L234A and G237A in the human IgG1 Fc region; also called chimeric antibody XT-M4; XT-M4-A-1
